How the values were obtained:
[1] = target: T1, FcRL3, overexpressed on 3T3 cells (UniProt Q96P31 18-734, limits assumed); experiment: phage clone on 3T3-FcRL3 cells
T1 construct: whole, on cells
T1 sequence (looked up): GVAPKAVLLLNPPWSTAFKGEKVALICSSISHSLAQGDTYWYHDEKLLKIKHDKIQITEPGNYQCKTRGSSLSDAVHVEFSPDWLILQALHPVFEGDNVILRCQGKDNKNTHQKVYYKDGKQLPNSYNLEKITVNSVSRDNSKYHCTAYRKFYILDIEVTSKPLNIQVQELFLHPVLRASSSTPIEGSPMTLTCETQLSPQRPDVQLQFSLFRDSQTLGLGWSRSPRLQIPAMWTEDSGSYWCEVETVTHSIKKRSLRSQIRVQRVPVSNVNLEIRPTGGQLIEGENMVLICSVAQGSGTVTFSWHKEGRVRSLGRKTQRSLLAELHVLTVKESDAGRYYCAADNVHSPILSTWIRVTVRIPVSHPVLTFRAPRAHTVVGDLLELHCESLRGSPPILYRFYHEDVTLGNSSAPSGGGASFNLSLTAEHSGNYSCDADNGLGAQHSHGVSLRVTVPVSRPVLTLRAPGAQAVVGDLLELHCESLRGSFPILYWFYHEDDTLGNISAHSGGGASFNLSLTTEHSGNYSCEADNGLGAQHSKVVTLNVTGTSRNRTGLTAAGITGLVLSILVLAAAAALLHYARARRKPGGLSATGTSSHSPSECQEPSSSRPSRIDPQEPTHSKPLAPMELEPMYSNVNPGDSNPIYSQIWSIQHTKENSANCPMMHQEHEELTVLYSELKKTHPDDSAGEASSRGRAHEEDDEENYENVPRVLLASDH

[2] = target: T2, FcRL1, overexpressed on 3T3 cells (UniProt Q96LA6 17-429, limits assumed); experiment: phage clone on 3T3-FcRL1 cells
T2 construct: whole, on cells
T2 sequence (looked up): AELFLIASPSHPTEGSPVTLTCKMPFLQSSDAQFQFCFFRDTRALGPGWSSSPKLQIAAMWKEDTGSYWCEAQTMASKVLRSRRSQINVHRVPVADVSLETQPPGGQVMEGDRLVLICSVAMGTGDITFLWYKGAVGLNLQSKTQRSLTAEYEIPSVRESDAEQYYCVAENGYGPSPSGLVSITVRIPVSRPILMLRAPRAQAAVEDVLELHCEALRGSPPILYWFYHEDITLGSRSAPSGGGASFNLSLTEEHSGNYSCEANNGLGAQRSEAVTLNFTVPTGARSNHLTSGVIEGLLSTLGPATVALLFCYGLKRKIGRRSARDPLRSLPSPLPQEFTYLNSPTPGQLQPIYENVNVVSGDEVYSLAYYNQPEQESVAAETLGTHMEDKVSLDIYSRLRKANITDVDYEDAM

[3] = target: T3, FcRL4, overexpressed on 3T3 cells (UniProt Q96PJ5 20-515, limits assumed); experiment: phage clone on 3T3-FcRL4 cells
T3 construct: whole, on cells
T3 sequence (looked up): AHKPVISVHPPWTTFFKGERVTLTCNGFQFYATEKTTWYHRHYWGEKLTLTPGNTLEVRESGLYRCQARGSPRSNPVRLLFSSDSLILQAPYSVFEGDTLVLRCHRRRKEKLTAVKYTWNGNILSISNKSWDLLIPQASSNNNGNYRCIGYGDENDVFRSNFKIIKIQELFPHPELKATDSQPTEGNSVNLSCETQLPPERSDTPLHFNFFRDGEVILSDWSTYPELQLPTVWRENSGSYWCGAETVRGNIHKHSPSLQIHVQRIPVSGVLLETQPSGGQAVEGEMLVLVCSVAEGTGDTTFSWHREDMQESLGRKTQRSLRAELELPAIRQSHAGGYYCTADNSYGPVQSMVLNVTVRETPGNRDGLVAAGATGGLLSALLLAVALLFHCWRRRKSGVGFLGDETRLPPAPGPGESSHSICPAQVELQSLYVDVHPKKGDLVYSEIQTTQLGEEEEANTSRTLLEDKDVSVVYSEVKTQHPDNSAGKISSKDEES

[4] = target: T4, FcRL6, overexpressed on 3T3 cells (UniProt Q6DN72 20-434, limits assumed); experiment: phage clone on 3T3-FcRL6 cells
T4 construct: whole, on cells
T4 sequence (looked up): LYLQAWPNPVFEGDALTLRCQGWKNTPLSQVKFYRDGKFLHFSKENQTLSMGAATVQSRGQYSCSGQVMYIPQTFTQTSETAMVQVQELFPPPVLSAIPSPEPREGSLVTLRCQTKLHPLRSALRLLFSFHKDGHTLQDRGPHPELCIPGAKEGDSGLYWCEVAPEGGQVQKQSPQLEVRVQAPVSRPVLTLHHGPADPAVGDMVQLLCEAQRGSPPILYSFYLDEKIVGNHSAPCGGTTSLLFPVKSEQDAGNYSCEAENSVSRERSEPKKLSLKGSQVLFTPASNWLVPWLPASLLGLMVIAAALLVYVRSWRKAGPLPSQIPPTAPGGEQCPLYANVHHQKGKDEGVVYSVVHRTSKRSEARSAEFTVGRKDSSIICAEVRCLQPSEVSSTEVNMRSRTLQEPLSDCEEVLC

Measured: binding result

B1: ET200-118 (scFv)
scFv: QAVLTQPASVSGSPGQSITISCTGTSSDVGGYNYVSWYQQHPGKAPKLMIYEVSNRPSGVSNRFSGSKSGNTASLTISGLQAEDEADYYCSSYTSSSTPYVFGAGTKVTVLGSRGGGGSGGGGSGGGGSLEMAEVQLVESGGGLVQPGRSLRLSCAASGFTFDDYAMHWVRQAPGKGLEWVSGISWNSGSIGYADSVKGRFTISRDNAKNSLYLQMNSLRAEDTALYYCAKARWTAVASDHHFDYWGQGTLVTVSSTSGQAGQHHHHHHGAYPYDVPDYAS
notes: screened as phage clone; entry is VL-linker-VH-His tag-HA tag
no binding: [1] | [2] | [3] | [4]

B2: ET200-125 (scFv)
scFv: NFMLTQPHAVSESPGKTVTISCTRSSGSIASNYVQWYQQRPGSSPRTVIYEDNQRPSGVPGRFSGSIDSSSNSASLTISGLKTEDEADYYCQSYDSTSVLFGGGTKLTVLGSRGGGGSGGGGSGGGGSLEMAEVQLVQSGAEVKKPGSSVKVSCKASGGTFSSNSLSWVRQAPGQGLEWMGRIFPILGITNYAQKFQGRVTITADKSTSTAYMELSSLRSEDTAVYYCARGNYQWYDAFDIWGQGTMVTVSSTSGQAGQHHHHHHGAYPYDVPDYAS
notes: as for B1
no binding: [1] | [2] | [3] | [4]

B3: ET200-116 (scFv)
scFv: QPVLTQPPSVSVSPGQTAAIPCSGDKLGDKFASWYQQKPGQSPVLVIYQDTKRPSGIPERFSGSNSGNTATLTISGTQAMDEADYYCQTWASGIVVFGGGTKLTVLGSRGGGGSGGGGSGGGGSLEMAQVQLQQSGPGLVKPSQTLSLTCAISGDSVSSNSAAWNWIRQSPSRGLEWLGRTYYRSKWYNDYAVSVKSRITINPDTSKNQFSLQLNSVTPEDTAVYYCARERSGWKGFDYWGQGTLVTVSSTSGQAGQHHHHHHGAYPYDVPDYAS
notes: as for B1
no binding: [1] | [2] | [3] | [4]

B4: ET200-121 (scFv)
scFv: QSVLTQPPSVSGAPGQRVTVSCTGSRSNIGAGYDVHWYQQLPGTAPKLLIYGNSNRPPGVPDRFSGSKSGTSASLVITGLQAEDAADYYCQSYDNTVRESPYVFGTGTKVTVLGSRGGGGSGGGGSGGGGSLEMAEVQLVQSGAEVKKPGASVKVSCKVSGYTLTELSMHWVRQAPGKGLEWMGGFDPEDGETIYAQKFQGRVTMTEDTSTDTAYMELSSLRSEDTAVYYCATESNLVSRHYYYYGMDVWGQGTTVTVSSTSGQAGQHHHHHHGAYPYDVPDYAS
notes: as for B1
no binding: [1] | [2] | [3] | [4]

B5: ET200-113 (scFv)
scFv: QSVVTQPPSVSAAPGQKVTISCSGSSSNIGNNYVSWYQQLPGTAPKLLIYDNNKRPSGIPDRFSGSKSGTSATLGITGLQTGDEADYYCGTWDSSLSAAYVFGTGTKVTVLGSRGGGGSGGGGSGGGGSLEMAQVQLVQSGAEVKKPGASVKVSCKASGYSFTSYTISWVRQAPGQGLEWMGWVSTYNGLRNYAQNLQGRVTMTTDTLTTTAYMELRSLRSDDTAVYYCVREGSPDYGDFAAFDYWGQGTLVTVSSTSGQAGQHHHHHHGAYPYDVPDYAS
notes: as for B1
no binding: [1] | [2] | [3] | [4]

B6: ET200-008 (scFv)
scFv: QSALTQPASVSGSPGQSITISCTGTSSDVGGYNYVSWYQQHPGKAPKLMIYDVSNRPSGVSNRFSGSKSGNTASLTISGLQAEDEADYYCSSYTSSSTSKVFGGGTKLTVLGSRGGGGSGGGGSGGGGSLEMAEVQLVESGGGVVRPGGSLRLSCAASGFTFGDYGMSWVRQAPGKGLEWVSGINWNGGSTGYADSVKGRFTISRDNAKNSLYLQMNSLRAEDTAVYYCARSKYNFHVYYDYWGQGTLVTVSSTSGQAGQHHHHHHGAYPYDVPDYAS
notes: as for B1
no binding: [1] | [2] | [3] | [4]

B7: ET200-123 (scFv)
scFv: QAVLTQPPSASGTPGQRVTISCSGSSSNIGSNTVNWYQQLPGTAPKLLMYNNDQRPSGVPDRFSGSKSGTSASLAISGLQSEDEADYYCAAWDDSLNGYVFGPGTKVTVLGSRGGGGSGGGGSGGGGSLEMAQVQLVESGAEVKKPGASVKVSCKASGYTFTSYGISWVRQAPGQGLEWMGWISAYNGNTNYAQKLQGRVTMTTDTSTSTAYMELRSLRSDDTAVYYCARDLSRGANPHYYYYYGMDVWGQGTTVTVSSTSGQAGQHHHHHHGAYPYDVPDYAS
notes: as for B1
no binding: [1] | [2] | [3] | [4]

B8: ET200-005 (scFv)
scFv: QPVLTQPPSVSVVPGKTARITCGGKNIGSKSVHWYQQKPGQAPVVVIHYDSDRPSGIPERFSGSNSGNTATLTISRVEAGDEADYYCQVWDSSSDHPYVFGTGTKVTVLGSRGGGGSGGGGSGGGGSLEMAQVQLVQSGAEVKKPGASVKVSCKASGYTFTNYGISWVRQAPGQGLEWMGWISAYNGNTNYAHKLQGRVTMTTDTSTSTANMELRSLRPDDTAVYYCARSYFGSHDYWGQGTLVTVSSTSGQAGQHHHHHHGAYPYDVPDYAS
notes: as for B1
no binding: [1] | [2] | [3] | [4]

B9: ET200-112 (scFv)
scFv: QAVLTQPPSASGTPGQRVTISCSGSSSNIGSNTVNWYQQLPGTAPKLLMYSNDQRPSGVPDRFSGSKSGTSASLAISGLQSEDEADYYCAAWDDSLNGYVFAAGTQLTVLSSRGGGGSGGGGSGGGGSLEMAQVQLQQWGAGLLKPSETLSLTCAVYGGSFSGYYWSWIRQPPGKGLEWIGEINHSGSTNYNPSLKSRVTISVDTSKNQFSLKLSSVTAADTAVYYCAREGLDAFDIWGQGTMVTVSSTSGQAGQHHHHHHGAYPYDVPDYAS
notes: as for B1
no binding: [1] | [2] | [3] | [4]

B10: ET200-115 (scFv)
scFv: QSVLTQPPSVSGAPGQRVTISCTGSSSNIGARYDVHWYQQLPGTAPRLLISANYDRPSGVPDRFSGSKSGTSASLAITGLQAEDEADYYCQSYDSSVSAWVFGGGTKVTVLGSRGGGGSGGGGSGGGGSLEMAEVQLVQSGAEVKEPGASVRISCQASGYNFISYYMHWVRQAPGQGLEWMGTINPGSGETDYSQKLQGRVTMTRDPSTGTFDMGLSSLTSGDTAVYYCATGLIRGASDAFNIWGRGTMVTVSSTSGQAGQHHHHHHGAYPYDVPDYAS
notes: as for B1
no binding: [1] | [2] | [3] | [4]

— US20210388081A1 (Memorial Sloan Kettering, published 2021)
